US7927849B2, “Laccase enzyme and use thereof” (AB Enzymes OY, priority 2004, dated 2011)

Columns and labels:
[1] = Specific activity on ABTS; format: biochemical; details: 25 mM succinate buffer pH 4.5, 25° C.
Procedure: The activity assay was carried out in accordance with the method developed by Niku-Paavola et al. (1988). The sample was diluted with 0.025 M succinate buffer, pH 4.5. […] The activity is expressed as nano katals.
(§1) Specific activities of the purified Thielavia laccase were determined towards different laccase substrates.

Specific activity on DMP = format: biochemical; details: 25 mM MES buffer, pH 5.5
Procedure: as §1

[2] = Isoelectric focusing (pI); format: physicochemical; details: pH range 3-9, ABTS staining
Procedure: Molecular weight of the Thielavia arenaria laccase (wt TaLcc1) was determined on SDS-PAGE according to Laemmli (1970). The gels used in the SDS-PAGE analysis were ready-made 12% Tris HCl gels (BioRad). Protein bands were visualized by staining with Coomassie Brilliant Blue (R 350; Pharmacia) and compared with molecular weight markers (Prestained Protein Marker Broad Range #7708S; New England BioLabs, Beverly, Mass.). The molecular weight of the Thielavia areanaria laccase was approximately 80 kDa. The isoelectric point of the laccase was determined with isoelectric focusing within the pH range of 3-9 (Pharmalyte IEF, Pharmacia) on a LKB 2117 Multiphor II Electrophoresis System (LKB Pharmacia, Bromma, Sweden) according to the manufacturer's instructions.
The purified recombinant Thielavia arenaria TaLcc1 was characterized in terms of pH optimum, thermal stability, and pI as described in Example 2. The molecular weight was determined by MALDI-TOF mass spectrometry on a Ultraflex™ time-of-flight instrument (BrukerDaltonics, Germany) as previously described (Palonen et al., 2003). The redox potential of TaLcc1 was also determined with a combined Pt-AgCl/KCl microelectrode at pH 5.0 according to Sigoillot et al (2004)

[3] = Denim bleaching at different temperatures (Launder Ometer); details: 200 nkat/g, 30 min, pH 6
Procedure: The test system and denim were as in Example 7, except that the conditions during the laccase and mediator treatment in Launder were 30 min, pH 6 and temperature 30-80° C. Also, the enzyme was inactivated by an alkaline treatment instead of raising the temperature in Launder as follows. After removing swatches from the containers they were soaked in warm water containing NaOH (pH 11.5) for 10 min and rinsed carefully with warm water. The swatches were dried half-dry in a tumbler and after that air dried. The bleaching effect was evaluated by measuring the colour as reflectance values as in Example 7.

[4] = Denim bleaching, effect of enzyme dosage (Wascator); details: 60° C., pH 6
Procedure: Lee Cooper Jeans previously washed with ECOSTONE® cellulases (Example 7) were treated with a TaLcc1 laccase product from Trichoderma strain RF5598 and DeniLite Base from Novozymes using different laccase dosages. The laccase treatments were performed with Electrolux's Wascator FOM 71 CLS washer extractor under optimal conditions for each enzyme, shown in Table 13. Methyl syringate (Example 7) was used as a mediator. Laccase was inactivated after draining by raising the pH above 11 by NaOH (10 min, 60° C.) and rinsing 3 times. The fabrics were dried in a tumbler.
The bleaching effect was evaluated by measuring the colour after laccase treatment as reflectance values (as in Example 7) and comparing the values to previously measured values after cellulase treatment.

Decolorization of dyes = test: Decolorization of dyes; set-up: key to Decolorization of Indigocarmine, Time 30 min / Decolorization of Indigocarmine, Time 90 min: −: no visually detectable change; +: visually detectable fading of the colour; ++: considerable fading of the colour; +++: complete/almost complete decolorization; details: 50° C., pH 6; for Decolorization of Indigocarmine, Time 30 min / Decolorization of Indigocarmine, Time 90 min: dye 12 mg/100 ml
Procedure: The TaLcc1 laccase preparation from strain RF5597 was tested for its ability to decolourize different dyes in the presence or absence of the methyl syringate mediator (Example 7). The experiments were carried out in 250 ml shake flasks containing 100 ml of dye dissolved in citrate phosphate buffer pH 6. Dye concentration 12 mg/100 ml was used. Enzyme was dosed 200 nkat (or 20 nkat) per 100 ml and the mediator 10 (or 1) mg per 100 ml. The shake flasks were incubated at 50° C. for 30, 90 and 150 minutes. Samples of 3.5 ml were taken in test tubes for visual evaluation.

[5] = 20 nkat/g, mediator 1 mg/g, 30 min
[6] = 20 nkat/g, mediator 1 mg/g, 60 min
[7] = 100 nkat/g, mediator 5 mg/g, 30 min
[8] = 100 nkat/g, mediator 5 mg/g, 60 min
[9] = enzyme 20 nkat/100 ml, mediator 1 mg/100 ml
[10] = enzyme 200 nkat/100 ml, mediator 0 mg/100 ml
[11] = enzyme 200 nkat/100 ml, mediator 10 mg/100 ml

B1: TaLcc1: Recombinant Thielavia arenaria ALKO4197 laccase 1 (SEQ ID NO: 12) produced in Trichoderma reesei strains RF5597/RF5598 (protein)
chain: MKSWAAAVALMVGILSPHAAAAPPANPVQRDMLQVLEARQSGPTCNTPSNRACWTNGFDINTDYEVSTPNTGRTVAYQLTLTEKENWIGPDGVLKNVVMLVNDKIIGPTIRANWGDNIEVTVINNLKTNGTSMHWHGLRQLGNVFNDGANGVTECPIPPKGGRKTYKFRATQYGTSWYHSHFSAQYGNGVVGTIQIDGPASLPYDIDLGVFPLMDYYYRSADELVHFTQSNGAPPSDNVLFNGTARHPETGAGQWYNVTLTPGKRHRLRIINTSTDNHFQVSLVGHNMTVIATDMVPVNAFTVSSLFLAVGQRYDVTIDANSPVGNYWFNVTFGDGLCGSSNNKFPAAIFRYQGAPATLPTDQGLPVPNHMCLDNLNLTPVVTRSAPVNNFVKRPSNTLGVTLDIGGTPLFVWKVNGSAINVDWGKPILDYVMSGNTSYPVSDNIVQVDAVDQWTYWLIENDPTNPIVSLPHPMHLHGHDFLVLGRSPDELPSAGVRHIFDPAKDLPRLKGNNPVRRDVTMLPAGGWLLLAFKTDNPGAWLFHCHIAWHVSGGLSVDFLERPNDLRTQLNSNAKRADRDDFNRVCREWNAYWPTNPFPKIDSGLRHRFVEESEWMVR
modifications: Thielavia arenaria ALKO4197; (1)..(617) Deduced amino acid sequence of Thielavia arenaria ALKO4197 laccase 1 (Ta Lcc1)
- Specific activity on ABTS [1]: 910 nkat/mg
- Specific activity on DMP (Specific activity on DMP): 285 nkat/mg
- pI [2]: 5.5-6.9
- Increase of L* ([3]; mediator 0 mg/g, 80° C.): 0.64
- L* after laccase treatment ([3]; mediator 0 mg/g, 80° C.): 30.27
- b* after laccase treatment ([3]; mediator 0 mg/g, 80° C.): −18.62
- Increase of L* ([3]; mediator 10 mg/g, 30° C.): 4.10
- L* after laccase treatment ([3]; mediator 10 mg/g, 30° C.): 33.68
- b* after laccase treatment ([3]; mediator 10 mg/g, 30° C.): −19.17
- Increase of L* ([3]; mediator 10 mg/g, 40° C.): 8.68
- L* after laccase treatment ([3]; mediator 10 mg/g, 40° C.): 37.49
- b* after laccase treatment ([3]; mediator 10 mg/g, 40° C.): −18.64
- Increase of L* ([3]; mediator 10 mg/g, 50° C.): 14.59
- L* after laccase treatment ([3]; mediator 10 mg/g, 50° C.): 42.99
- b* after laccase treatment ([3]; mediator 10 mg/g, 50° C.): −17.06
- Increase of L* ([3]; mediator 10 mg/g, 60° C.): 18.42
- L* after laccase treatment ([3]; mediator 10 mg/g, 60° C.): 47.56
- b* after laccase treatment ([3]; mediator 10 mg/g, 60° C.): −14.55
- Increase of L* ([3]; mediator 10 mg/g, 70° C.): 17.85
- L* after laccase treatment ([3]; mediator 10 mg/g, 70° C.): 46.94
- b* after laccase treatment ([3]; mediator 10 mg/g, 70° C.): −13.82
- Increase of L* ([3]; mediator 10 mg/g, 80° C.): 9.85
- L* after laccase treatment ([3]; mediator 10 mg/g, 80° C.): 39.24
- b* after laccase treatment ([3]; mediator 10 mg/g, 80° C.): −15.74
- Increase of L* [4, 5]: 12.24
- L* after laccase treatment [4, 5]: 40.61
- b* after laccase treatment [4, 5]: −16.16
- Increase of L* [4, 6]: 15.09
- L* after laccase treatment [4, 6]: 42.72
- b* after laccase treatment [4, 6]: −15.61
- Increase of L* [4, 7]: 21.88
- L* after laccase treatment [4, 7]: 49.84
- b* after laccase treatment [4, 7]: −13.75
- Increase of L* [4, 8]: 25.68
- L* after laccase treatment [4, 8]: 53.46
- b* after laccase treatment [4, 8]: −11.64
- Decolorization of Indigocarmine, Time 30 min (Decolorization of dyes; [9]): +
- Decolorization of Indigocarmine, Time 90 min (Decolorization of dyes; [9]): +++
- Decolorization of Indigocarmine, Time 30 min (Decolorization of dyes; [10]): −
- Decolorization of Indigocarmine, Time 90 min (Decolorization of dyes; [10]): −
- Decolorization of Indigocarmine, Time 30 min (Decolorization of dyes; [11]): +++
- Decolorization of Indigocarmine, Time 90 min (Decolorization of dyes; [11]): +++
- time until blue colour of Indigocarmine had turned to light yellow (Decolorization of dyes; in the presence of the mediator): < 30 min
